In patent US7060495 (AVENTIS PHARMA DEUTSCHLAND, dated 2006):

How the values were obtained:
[1] = target: T1, polymorphic epithelial mucin (PEM) (UniProt P15941 24-1097, limits assumed); test: specificity enzyme activity test: antigen-coated plate, bound fusion protein detected by its β-glucuronidase activity on 4-methylumbelliferyl β-glucuronide
T1 construct: Control antigen in the specificity enzyme activity test
Excerpt: (§1) The test determines the liberation of 4-methylumbelliferone from 4-methylumbelliferyl β-glucuronide by the β-glucuronidase portion of the fusion protein after the fusion protein has been bound via the sFv portion to an antigen. The measured fluorescence values are reported as relative fluorescence units (FU).

[2] = target: T2, carcinoembryonic antigen (CEA) (UniProt P06731 35-685, limits assumed); test: specificity enzyme activity test (refers to Example 5)
T2 construct: Tumor-associated antigen coated on microtiter plates in the specificity enzyme activity test
T2 sequence (looked up): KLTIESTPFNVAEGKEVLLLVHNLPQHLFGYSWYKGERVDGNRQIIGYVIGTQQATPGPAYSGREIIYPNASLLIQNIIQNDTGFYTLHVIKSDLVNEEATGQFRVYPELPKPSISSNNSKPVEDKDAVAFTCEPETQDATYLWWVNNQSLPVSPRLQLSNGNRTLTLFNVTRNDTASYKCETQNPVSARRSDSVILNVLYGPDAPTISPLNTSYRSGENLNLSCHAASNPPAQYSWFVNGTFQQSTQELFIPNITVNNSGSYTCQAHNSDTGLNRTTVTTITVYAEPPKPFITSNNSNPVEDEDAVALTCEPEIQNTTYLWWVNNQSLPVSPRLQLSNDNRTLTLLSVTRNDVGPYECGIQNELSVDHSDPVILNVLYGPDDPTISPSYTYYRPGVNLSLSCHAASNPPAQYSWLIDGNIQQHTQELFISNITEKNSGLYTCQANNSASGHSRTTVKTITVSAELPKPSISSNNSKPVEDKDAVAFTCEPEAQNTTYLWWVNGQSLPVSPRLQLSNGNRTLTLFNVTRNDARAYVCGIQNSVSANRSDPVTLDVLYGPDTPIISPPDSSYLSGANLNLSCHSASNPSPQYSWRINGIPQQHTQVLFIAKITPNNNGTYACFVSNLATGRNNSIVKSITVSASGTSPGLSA
Excerpt: as §1

T1 sequence (P15941 24-1097 limits assumed): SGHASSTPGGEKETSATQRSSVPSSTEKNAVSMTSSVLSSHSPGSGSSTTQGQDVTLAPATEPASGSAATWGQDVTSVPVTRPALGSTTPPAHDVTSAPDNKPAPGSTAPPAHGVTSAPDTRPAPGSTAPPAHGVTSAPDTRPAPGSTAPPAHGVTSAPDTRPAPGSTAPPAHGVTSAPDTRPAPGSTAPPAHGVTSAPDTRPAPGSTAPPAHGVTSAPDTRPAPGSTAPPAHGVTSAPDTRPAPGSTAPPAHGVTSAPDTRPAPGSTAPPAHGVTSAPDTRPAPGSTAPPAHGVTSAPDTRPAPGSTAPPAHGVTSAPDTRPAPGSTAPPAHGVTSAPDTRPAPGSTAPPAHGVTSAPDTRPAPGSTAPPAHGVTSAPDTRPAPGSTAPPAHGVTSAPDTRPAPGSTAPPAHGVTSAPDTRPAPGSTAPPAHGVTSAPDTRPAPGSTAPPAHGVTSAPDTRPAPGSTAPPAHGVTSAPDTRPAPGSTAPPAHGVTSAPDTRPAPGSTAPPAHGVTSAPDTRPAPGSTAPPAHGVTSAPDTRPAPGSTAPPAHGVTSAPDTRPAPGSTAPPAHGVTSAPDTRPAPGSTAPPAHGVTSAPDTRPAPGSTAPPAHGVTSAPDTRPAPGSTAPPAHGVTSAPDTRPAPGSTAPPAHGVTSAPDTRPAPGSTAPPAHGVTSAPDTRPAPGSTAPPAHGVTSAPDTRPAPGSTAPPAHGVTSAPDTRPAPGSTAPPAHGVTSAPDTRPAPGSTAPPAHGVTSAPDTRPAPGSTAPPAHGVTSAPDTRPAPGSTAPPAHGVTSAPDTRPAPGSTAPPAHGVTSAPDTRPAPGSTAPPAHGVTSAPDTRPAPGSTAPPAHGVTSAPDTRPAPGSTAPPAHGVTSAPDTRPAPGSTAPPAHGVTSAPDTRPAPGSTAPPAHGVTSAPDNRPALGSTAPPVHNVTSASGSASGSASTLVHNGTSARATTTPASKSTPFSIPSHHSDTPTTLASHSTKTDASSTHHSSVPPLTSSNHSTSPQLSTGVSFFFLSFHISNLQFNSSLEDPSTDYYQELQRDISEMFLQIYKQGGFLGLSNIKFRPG

binding result [1]: no binding | binding result [2]: binds
B1: sFv-huβ-Gluc fusion protein (humanized sFv 431/26 against CEA linked via a hinge to human β-glucuronidase, expressed in BHK cells) (other)
chain: QVQLQESGPGLVRPSQTLSLTCTVSGFTISSGYSWHWVRQPPGRGLEWIGYIQYSGITNYNPSLKSRVTMLVDTSKNQFSLRLSSVTAADTAVYYCAREDYDYHWYFDVWGQGTTVTVSSGGGGSGGGGSGGGGSDIQLTQSPSSLSASVGDRVTITCSTSSSVSYMHWYQQKPGKAPKLLIYSTSNLASGVPSRFSGSGSGTDFTFTISSLQPEDIATYYCHQWSSYPTFGQGTKLEIKELKTPLGDTTHTCPRCPAAAAVQGGMLYPQESPSRECKELDGLWSFRADFSDNRRRGFEEQWYRRPLWESGPTVDMPVPSSFNDISQDWRLRHFVGWVWYEREVILPERWTQDLRTRVVLRIGSAHSYAIVWVNGVDTLEHEGGYLPFEADISNLVQVGPLPSRLRITIAINNTLTPTTLPPGTIQYLTDTSKYPKGYFVQNTYFDFFNYAGLQRSVLLYTTPTTYIDDITVTTSVEQDSGLVNYQISVKGSNLFKLEVRLLDAENKVVANGTGTQGQLKVPGVSLWWPYLMHERPAYLYSLEVQLTAQTSLGPVSDFYTLPVGIRTVAVTKSQFLINGKPFYFHGVNKHEDADIRGKGFDWPLLVKDFNLLRWLGANAFRTSHYPYAEEVMQMCDRYGIVVIDECPGVGLALPQFFNNVSLHHHMQVMEEVVRRDKNHPAVVMWSVANEPASHLESAGYYLKMVIAHTKSLDPSRPVTFVSNSNYAADKGAPYVDVICLNSYYSWYHDYGHLELIQLQLATQFENWYKKYQKPIIQSEYGAETIAGFHQDPPLMFTEEYQKSLLEQYHLGLDQKRRKYVVGELIWNFADFMTEQSPTRVLGNKKGIFTRQRQPKSAAFLLRERYWKIANETRYPHSVAKSQCLENSPFT
modifications: glycosylated (galactose, mannose and other carbohydrates, Table 2)
notes: scFv-enzyme fusion
